# Test results taken from US20150125397A1, “DUAL SPECIFIC BINDING PROTEINS DIRECTED AGAINST IMMUNE CELL RECEPTORS AND AUTOANTIGENS” (ABBVIE INC., priority 2013, published 2015).
# B1: DVD3759: DVD-Ig: VD1 mIgM (B7.6), SL linker, VD2 DNA(PA4); heavy SEQ ID NO 64, light 65 (antibody)
# heavy: QVQLKESGPGLVKPSLTLSLTCTVSGFSLNGYGVIWVRQPPGKGLEWMGVIWGNGNTNYNSTLKSRLSISRDTSKSQVFLKMNNLQTEDTAMYFCARSENYYSSPGYFAYWGQGTLVTVSSASTKGPEVQLVESGGGLVKPGGSLKLSCVASGFTFSTYAMSWVRQTPTKRLEWVATISRGGVSTYYPDTVKGRFTISRDNAKNTLYLQMSSLRSEDTAMYYCARPPTIVTTWFAYWGQGTLVTVSS
# light: NTVMTQSPTSMFISVGDRVTMNCKASQNVGSDVDWYQQKTGQSPKLLISGTSNRYTGVPDRFTGSGSGTDFTLTISNMQAEDLAVYYCLQYNYNPTFGAGTKLELKRTVAAPSVFIFPPDVVMTQTPLSLPVSLGDQASISCRSSQSLVHSNGNTYLHWYLQKPGQSPKLLIYKVSNRFSGVPDRFSGSGSGTDFTLKISRVEAEDLGAYFCSQSTHVPYTFGGPTRLEIKR
# B2: DVD3754: DVD-Ig: VD1 DNA(PA4), SL linker, VD2 mIgM (B7.6); heavy SEQ ID NO 54, light 55 (antibody)
# heavy: EVQLVESGGGLVKPGGSLKLSCVASGFTFSTYAMSWVRQTPTKRLEWVATISRGGVSTYYPDTVKGRFTISRDNAKNTLYLQMSSLRSEDTAMYYCARPPTIVTTWFAYWGQGTLVTVSSASTKGPQVQLKESGPGLVKPSLTLSLTCTVSGFSLNGYGVIWVRQPPGKGLEWMGVIWGNGNTNYNSTLKSRLSISRDTSKSQVFLKMNNLQTEDTAMYFCARSENYYSSPGYFAYWGQGTLVTVSS
# light: DVVMTQTPLSLPVSLGDQASISCRSSQSLVHSNGNTYLHWYLQKPGQSPKLLIYKVSNRFSGVPDRFSGSGSGTDFTLKISRVEAEDLGAYFCSQSTHVPYTFGGPTRLEIKRTVAAPSVFIFPPNTVMTQSPTSMFISVGDRVTMNCKASQNVGSDVDWYQQKTGQSPKLLISGTSNRYTGVPDRFTGSGSGTDFTLTISNMQAEDLAVYYCLQYNYNPTFGAGTKLELKR
# Key:
# DNA = test: Antinuclear antibody (ANA) test; type: binding; parameters: key to ANA score, relative result: (X)-(XXX) indicates relative results; (XX): (X)-(XXX) indicates relative results; (X)-(XXX) indicates relative results; conditions: for ANA score / ANA score, relative result: ANA staining at 10 μg/ml
# Description: The cloned BWR4 and PA4 antibodies as well as the DVD-Ig proteins were tested for ANA reactivity using the ANA test kit. Briefly, the DVD-Ig proteins and antibodies were diluted to […] in blocking buffer (1% BSA in PBS). The DVD-Ig proteins and antibodies were added to separate wells of an ANA slide at 50 μl/well and incubated in a moist chamber for 2 hours at room temperature (RT). The wells were then washed 3× with PBS. To detect bound antibodies, Alexa Fluor 488 conjugated goat α-human IgG (α-hIgG) was then added at a dilution of 1:1,000 and the slide incubated in a moist chamber for 1 hour. Unbound detecting antibody was removed by immersing the slide in a jar containing PBS and incubating for 10 minutes at RT with gentle rocking. The prior step was repeated 2× and 10 μl of Prolong® Gold Antifade was added to each well and a 24 mm×60 mm #1 cover glass seated on top. The covered slide was incubated overnight at RT and then sealed by applying clear nail polish to the edges. Binding of the DVD-Ig proteins and antibodies to the slides was assessed by fluorescence microscopy.
# DVD-Ig proteins DVD3751-DVD3760 were characterized by antinuclear antibody (ANA) staining at 10 μg/ml according to the method of Example 2.4.
# ANA: HEp-2 human tissue culture substrate slides were incubated with 5 μg/ml of the anti-DNA-IgG2a or the DVD-Ig™ binding protein for 2 hours at RT. The slides were washed and bound antibodies were detected with Alexa-488 goat anti-human antibody or DyLight 488 goat anti-mouse antibody.
# AM14 TLR9−/− B cells = test: [3H]thymidine incorporation, BCR/TLR9 stimulation of AM14 TLR9-/- B cells; type: cell-based, mouse; conditions: at 5 mg/ml; 24 hours, then 6 hours pulse
# Source text: The AM14 B cell receptor (BCR) transgenic mouse has been described previously (Sweet et al. (2010) Autoimmun 43(8): 607-18). Briefly, AM14 is a BCR comprising the AM14 heavy chain and the Vk8 light chain that recognizes murine IgG2a (mIgG2a) of the “a” allotype. Between 95-98% of B cells in a mouse positive for the AM14 heavy chain and Vk8 light chain express the AM14 BCR. To generate AM14 B cells that are deficient in TLR9, TLR7 or FcγRIIB, the AM14 and Vk8 genes were bred to the appropriate knock out mice.
# Primary murine B cells were purified by positive selection using BD Imag™ CD45R/B220 magnetic particles (BD Biosciences, San Jose, Calif.). Briefly, B cells were cultured in RPMI containing, pencillin-streptomycin, β-mercaptoethanol, and 5% heat-inactivated fetal calf serum (FCS) in 96 well flat bottom plates at a density of 4×10^5 cells/well. For stimulation through the BCR and TLR9, B cells were treated with a titration of 0.3 μg/ml-0.03 μg/ml of PA4 or 5 μg/ml to 0.15 μg/ml of a DVD-Ig protein (DVD3751, DVD3752, DVD3754, DVD3755, DVD3759 and DVD3760), unless otherwise noted. Cells were also treated with 1 μg/ml 1826, an experimental ligand for TLR9, as a control. After 24 hours, the cells were pulsed for 6 hours with [3H]thymidine (Perkin Elmer, Waltham Mass.). Incorporation of [3H]thymidine was quantified via a liquid scintillation beta counter (Trilux 1450 MicroBeta, PerkinElmer) according to standard methods.
# DVD-Ig proteins DVD3751-DVD3760 were characterized by ^3H incorporation at […] according to the method of Example 2.6.
Molecule,ANA score (DNA),"ANA score, relative result (DNA)",3H incorporation AM14 TLR9−/− (AM14 TLR9−/− B cells),"level of ANA staining (DNA; 10 μg/ml, among DVD3751-DVD3760)","ANA, immunofluorescent HEp-2 staining (DNA; Example 6, 5 μg/ml, FIG. 8C)"
B1,3.5,(XX),(970),,
B2,4.5,(XXX),(1597),highest level of staining,high ANA score
